Source: article doi:10.1101/2020.01.12.903617, “The peptide sensor motif stabilizes the outward-facing conformation of TmrAB” (bioRxiv, 2020)
No end group written: not given here. fluorescein = fluorescein label attached to the Cys side chain

Assays:
TmrAB D117A^TmrB = target: T1, TmrAB D117A^TmrB (Thermus thermophilus, UniProt Q72J05 1-600; Q72J04 1-578, D117A); test: fluorescence polarisation; 1.7 uM TmrAB with 50 nM RRY(C^Fluorescein)KSTEL in SEC buffer (20 mM HEPES, 150 mM NaCl, pH 7, 0.05% ß-DDM), 15 minutes on ice, in the absence or presence of 5 mM ATP and 10 mM MgCl2; read at 25°C (the results say 4°C); signal normalized to WT without ATP; conditions: both partners purified
T1 construct: TmrA, Thermus thermophilus, the chain of TmrAB with the canonical Walker B motif; TmrB, Thermus thermophilus, the chain of TmrAB with the non-canonical Walker B motif
T1 sequence 1: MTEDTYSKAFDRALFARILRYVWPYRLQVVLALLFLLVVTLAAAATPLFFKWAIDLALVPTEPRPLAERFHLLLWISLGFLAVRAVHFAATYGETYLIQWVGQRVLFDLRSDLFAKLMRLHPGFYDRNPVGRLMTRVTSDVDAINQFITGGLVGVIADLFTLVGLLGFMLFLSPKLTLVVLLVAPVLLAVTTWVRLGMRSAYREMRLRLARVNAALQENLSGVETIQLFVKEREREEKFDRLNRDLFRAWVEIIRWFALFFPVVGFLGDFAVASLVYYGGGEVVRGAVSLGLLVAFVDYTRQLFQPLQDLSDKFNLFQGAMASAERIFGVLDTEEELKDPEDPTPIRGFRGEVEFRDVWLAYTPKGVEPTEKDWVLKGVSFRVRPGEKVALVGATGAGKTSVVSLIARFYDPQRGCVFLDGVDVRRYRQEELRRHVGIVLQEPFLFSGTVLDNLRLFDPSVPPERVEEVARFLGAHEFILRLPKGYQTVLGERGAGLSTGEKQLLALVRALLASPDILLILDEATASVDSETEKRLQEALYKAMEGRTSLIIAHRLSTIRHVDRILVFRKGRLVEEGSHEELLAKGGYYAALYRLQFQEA
T1 sequence 2: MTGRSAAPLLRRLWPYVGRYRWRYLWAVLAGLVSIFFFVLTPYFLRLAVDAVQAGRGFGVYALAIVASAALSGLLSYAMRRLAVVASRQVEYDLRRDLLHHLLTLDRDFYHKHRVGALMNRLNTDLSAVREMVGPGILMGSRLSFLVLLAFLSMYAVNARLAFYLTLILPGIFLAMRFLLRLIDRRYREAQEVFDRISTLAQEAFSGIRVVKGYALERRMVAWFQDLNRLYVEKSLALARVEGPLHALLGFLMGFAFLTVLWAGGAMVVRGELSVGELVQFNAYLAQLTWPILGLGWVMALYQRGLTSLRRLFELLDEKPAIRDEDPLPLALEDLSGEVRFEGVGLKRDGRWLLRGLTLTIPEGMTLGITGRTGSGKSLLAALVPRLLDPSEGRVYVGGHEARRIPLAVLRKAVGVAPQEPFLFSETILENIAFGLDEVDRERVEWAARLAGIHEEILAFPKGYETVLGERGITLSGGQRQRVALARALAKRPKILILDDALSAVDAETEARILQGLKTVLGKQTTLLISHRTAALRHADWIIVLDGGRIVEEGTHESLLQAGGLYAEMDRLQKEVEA

TmrAB G116A^TmrB = target: T2, TmrAB G116A^TmrB (Thermus thermophilus, UniProt Q72J05 1-600; Q72J04 1-578, G116A); test: as above; conditions: both partners purified
T2 construct: TmrA, Thermus thermophilus, the chain of TmrAB with the canonical Walker B motif; TmrB, Thermus thermophilus, the chain of TmrAB with the non-canonical Walker B motif
T2 sequence 1: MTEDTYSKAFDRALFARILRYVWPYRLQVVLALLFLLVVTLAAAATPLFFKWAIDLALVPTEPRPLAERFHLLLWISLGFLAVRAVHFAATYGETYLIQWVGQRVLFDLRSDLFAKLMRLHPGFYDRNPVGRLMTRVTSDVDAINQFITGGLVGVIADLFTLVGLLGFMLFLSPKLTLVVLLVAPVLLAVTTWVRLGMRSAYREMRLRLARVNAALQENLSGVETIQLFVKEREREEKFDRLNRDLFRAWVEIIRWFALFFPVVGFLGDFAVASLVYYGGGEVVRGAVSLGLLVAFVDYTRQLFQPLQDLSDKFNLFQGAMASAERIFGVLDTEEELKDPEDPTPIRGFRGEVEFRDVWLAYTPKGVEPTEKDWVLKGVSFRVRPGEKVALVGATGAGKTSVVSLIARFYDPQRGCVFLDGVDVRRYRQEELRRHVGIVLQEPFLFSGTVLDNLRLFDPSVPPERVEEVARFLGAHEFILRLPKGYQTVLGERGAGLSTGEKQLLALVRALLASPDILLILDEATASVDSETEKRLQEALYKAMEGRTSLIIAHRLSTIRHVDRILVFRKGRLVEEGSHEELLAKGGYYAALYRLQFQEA
T2 sequence 2: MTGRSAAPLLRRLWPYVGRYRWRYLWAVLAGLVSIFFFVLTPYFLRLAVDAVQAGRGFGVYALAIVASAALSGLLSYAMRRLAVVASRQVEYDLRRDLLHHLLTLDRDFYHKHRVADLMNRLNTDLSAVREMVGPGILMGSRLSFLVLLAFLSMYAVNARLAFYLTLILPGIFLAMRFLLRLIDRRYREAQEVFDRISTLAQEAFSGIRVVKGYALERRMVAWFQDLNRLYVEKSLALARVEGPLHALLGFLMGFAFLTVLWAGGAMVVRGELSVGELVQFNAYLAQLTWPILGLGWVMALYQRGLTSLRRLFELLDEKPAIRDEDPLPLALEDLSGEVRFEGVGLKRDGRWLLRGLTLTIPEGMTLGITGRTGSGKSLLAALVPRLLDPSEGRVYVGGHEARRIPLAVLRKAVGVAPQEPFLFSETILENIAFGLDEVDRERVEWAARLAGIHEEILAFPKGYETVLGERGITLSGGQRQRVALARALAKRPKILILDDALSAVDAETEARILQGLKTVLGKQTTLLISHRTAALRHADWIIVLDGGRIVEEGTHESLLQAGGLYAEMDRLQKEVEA

B1: fluorescent transport substrate peptide RRY(C^Fluorescein)KSTEL (peptide)
peptide: RRYC(fluorescein)KSTEL
notes: fluorescein-labelled transport substrate peptide of TmrAB; also called fluorescently-labeled peptide substrate; peptide substrate; source: bought: Genscript
- binding result (TmrAB D117A^TmrB): binds
- binding result (TmrAB G116A^TmrB): binds
